Test results: patent US20250197505A1 (DREN BIO, published 2025)

Experiments:
[1] = target: T1, human CD94 expressed on cells (human primary NK cells in PBMCs; HEK cells expressing human CD94) (human, UniProt Q13241 1-179); experiment: cell-based or functional assay
T1 sequence (looked up): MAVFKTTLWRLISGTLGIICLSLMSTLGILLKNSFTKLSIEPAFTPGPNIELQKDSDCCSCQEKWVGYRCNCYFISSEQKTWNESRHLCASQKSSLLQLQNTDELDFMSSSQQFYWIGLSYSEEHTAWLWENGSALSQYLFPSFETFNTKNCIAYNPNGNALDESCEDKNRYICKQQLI

[2] = target: T2, cynomolgus CD94 expressed on HEK293 cells (cynomolgus monkey, UniProt Q68VD4 1-179); experiment: flow cytometry, cynomolgus CD94-expressing HEK293 cells
T2 construct: also called cyno-CD94; cynomolgus monkey CD94
T2 sequence: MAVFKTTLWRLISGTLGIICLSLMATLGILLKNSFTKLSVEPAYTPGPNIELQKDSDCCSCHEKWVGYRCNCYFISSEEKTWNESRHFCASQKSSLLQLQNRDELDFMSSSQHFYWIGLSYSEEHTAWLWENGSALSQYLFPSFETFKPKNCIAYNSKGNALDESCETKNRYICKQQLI
Text: Anti-CD94 hybridoma supernatants were screened on cynomolgus CD94-expressing HEK293 cells by flow cytometry for cross-reactivity to cynomolgus CD94. HP-3D9 is a commercial anti-CD94 antibody that was used as a negative control. Mouse IgG1, IgG2a, IgG2b and IgG3 were used as negative controls. […] Commercially available anti-CD94 antibodies were used to test cynomolgus cross-reactivity. 18H3 was used as a positive control. The MFI of each antibody was normalized to the MFI of its respective isotype.
Cynomolgus CD94-expressing HEK293 cells were seeded in 96-well plates at a density of 100,000 cells per well, incubated with cell viability dye (Thermo Fisher) for 30 minutes on ice and protected from light. The cells were washed once with FACS buffer (PBS with 2% IgG low FBS). Hybridoma supernatants, anti-CD94 antibodies and isotype controls were incubated with cells for 30 minutes on ice and protected from light. […] After incubation, the cells received a final wash in FACS buffer before quantification on the Cytoflex (Beckman Coulter). All data acquisition and fluorescence compensation were performed using CytoFlex (Beckman Coulter, Atlanta, GA). […] CD94 expression was then quantified on this population. […]

[3] = target: T1, human CD94 expressed on cells (human …); experiment: flow cytometry titration (100 nM to 0.046 nM) on primary NK cells in healthy donor PBMCs; human primary NK cells, flow cytometry titration
Experimental: Peripheral blood monocuclear cells (PBMCs) of healthy donor HD-40 were used for antibody staining. 18H3 antibody was titrated from 100 nM to 0.046 nM in 1:3 dilutions and incubated with PBMCs. CD3 and CD56 antibodies were used to identify NK cells on the flow scatter. 18H3 antibody binding on […] and CD56 bright NK cells was used to assess affinity of 18H3. Titration curves and EC50 were generated using Graphpad Prism. […] Human IgG1 isotype control with secondary antibody (hIgG1) and goat (Fab)2 fragment anti-human Fcy-specific secondary antibody AF647 only (2ndary Ab) were used as controls.
Healthy donor PBMCs were seeded in 96 well plates at a density of 100,000 cells per well, incubated with human Fc block (Biolegend) and cell viability dye (Thermo Fisher) for 30 minutes on ice and protected from light. […] After incubation, the cells received a final wash in FACS buffer before quantification on the Cytoflex (Beckman Coulter). All data acquisition and fluorescence compensation were performed using CytoFlex (Beckman Coulter, Atlanta, GA). […] CD94 expression was then quantified on the CD3−CD56+NK cell population. […]
The affinity of the antibody clones was also assessed by flow cytometry analysis.

B1: anti-CD94 antibody clone 18H3 (antibody, V domains shown)
VH: EVQLVQSGAEVKKPGESLKISCKGSGYRFTSYWIGWVRQMPGKGLEWMGIIYPGDSDTRYSPSFQGQVIISADKSITTAFLQWSSLKASDTAMYYCARPFDYGGSPGYFDYWGQGTLVTVSS
VL: DIQMTQSPSTLSASVGDRVTITCRASQSIRSWLAWYQQKPGKAPKLLIYKASSLESGVPSRFSGSGSGTEFTLTISSLQPDDFATYYCQQYNTFWTFGQGTKVEIK
notes: also called 18H3-AF647
For B1, the “percent decrease in MFI (antibody internalization assay), comparing 0.5 hours to 24 hours at 37° C.” value [1] was 24%, the binding result [2] was “binds” and the EC50 [3] was 2.6 nM.
